Source: patent US20220363781A1
Read-outs that look alike come from different tables or passages of the source.

Legend:
human TSLP-His (human) [1] = molecular target: human TSLP-His (human) (UniProt Q969D9); assay: ELISA, human TSLP-His coated, antibody titrated, anti-human Fc-HRP
human TSLP-His (human) [2] = molecular target: human TSLP-His (human) (UniProt Q969D9); assay: cell-based or functional assay
human TSLP-His (human) [3] = molecular target: human TSLP-His (human) (UniProt Q969D9); assay: cell-based or functional assay; remark: listed apart in the source
human TSLP-His (human) [4] = molecular target: human TSLP-His (human) (UniProt Q969D9); assay: ELISA, human TSLP-His coated on the plate, serially diluted antibody, HRP goat anti-human Fc, absorbance at 450 nm
[5] = molecular target: monkey TSLP-His (cynomolgus monkey, Macaca fascicularis) (cynomolgus monkey (Macaca fascicularis)); assay: ELISA, monkey TSLP-His coated, antibody titrated, anti-human Fc-HRP
FcRn (biotin-labeled) = assay: BLI (Fortebio), biotin-FcRn on SA sensor, antibody 1.5625-200 nM, pH 6.0, 1:1 model
[6] = molecular target: monkey TSLP-His (cynomolgus monkey, Macaca fascicularis) (cynomolgus monkey (Macaca fascicularis)); assay: BLI (Fortebio), antibody on ProA sensor, monkey TSLP 1.5625-100 nM, 1:1 model
human TSLP-His (human) [7] = molecular target: human TSLP-His (human) (UniProt Q969D9); assay: ELISA, human TSLP-His coated, antibody titrated
human TSLP-His (human) [8] = molecular target: human TSLP-His (human) (UniProt Q969D9); assay: BLI (Fortebio), antibody on ProA sensor, human TSLP 1.5625-100 nM, 1:1 model
[9] = molecular target: monkey TSLP-His (cynomolgus monkey, Macaca fascicularis) (cynomolgus monkey (Macaca fascicularis)); assay: ELISA, monkey TSLP-His coated, antibody titrated
human TSLP-His (human) [10] = molecular target: human TSLP-His (human) (UniProt Q969D9); assay: BLI (Fortebio), antibody on ProA sensor, human TSLP titrated, 1:1 model
human TSLP-His (human) [11] = molecular target: human TSLP-His (human) (UniProt Q969D9); assay: competitive ELISA, hIL7Rα-hTSLPR-hFc coated, hTSLP-His plus titrated antibody, anti-His-HRP

Sequence of human TSLP-His (human) (Q969D9 other isoform, or with tags, fused parts or gaps limits assumed): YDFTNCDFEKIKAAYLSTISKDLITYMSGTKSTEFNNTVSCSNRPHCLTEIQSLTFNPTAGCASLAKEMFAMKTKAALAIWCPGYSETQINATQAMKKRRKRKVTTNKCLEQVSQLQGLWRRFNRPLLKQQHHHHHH
Sequence of monkey TSLP-His (cynomolgus monkey, Macaca fascicularis) (cynomolgus monkey (Macaca fascicularis)) (chain, as listed by the source): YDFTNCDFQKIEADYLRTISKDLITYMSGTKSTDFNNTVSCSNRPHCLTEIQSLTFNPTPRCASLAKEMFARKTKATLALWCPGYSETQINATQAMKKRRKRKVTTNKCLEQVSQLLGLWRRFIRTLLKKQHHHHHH

EC50 (human TSLP-His (human) [1]): 1.4 nM | EC50, blocking human TSLP-induced proliferation of Ba/F3-hTSLPR-hIL7Rα cells (CCK8) (human TSLP-His (human) [2]): 0.05 nM | EC50, inhibition of human TSLP-induced PBMC secretion of MDC (human TSLP-His (human) [2]): 0.00563 nM | EC50, inhibition of human TSLP-induced PBMC secretion of TARC (human TSLP-His (human) [2]): 0.51 nM | hTSLP EC50, inhibition of the proliferation of Ba/F3-hTSLPR-hIL7Rα cells (human TSLP-His (human) [2]): 0.041 nM | hTSLP EC50, inhibition of the proliferation of Ba/F3-hTSLPR-hIL7Rα cells (human TSLP-His (human) [3]): 0.57 nM | EC50 (read off the curve) (human TSLP-His (human) [4]): 0.4 µg/mL | EC50 [5]: 0.19 nM | Kd (FcRn (biotin-labeled)): 11.2 nM | Kd [6]: 1.15 nM | EC50 (human TSLP-His (human) [7]): 0.233 nM | Kd (human TSLP-His (human) [8]): 0.8 nM | EC50 [9]: 0.336 nM | Kd (human TSLP-His (human) [10]): 0.373 nM | IC50 (human TSLP-His (human) [11]): 0.93 nM
Substance: Control antibody (control anti-TSLP antibody, chEMBL ID CHEMBL3707229)
